The record followed here is the RNAGym collection of RNA variant scans (doi:10.7554/elife.80360).

B1: HDV Ribozyme (parent)
chain: GGCCGGCAUGGUCCCAGCCUCCUCGCUGGCGCCGGCUGGGCAACAUUCCGAGGGGACCGUCCCCUCGGUAAUGGCGAAUGGGACCCA

Variants of B1 are the subject of the data set. In words: self-cleavage, relative activity (ratio to wild type); higher = more cleavage; co-transcriptional.
Take GGCCGGCAUGGUCCCAGCCUCCUCGCUGGCGCCGGCUGGGCAACAUUCCGAGGGGACCGUCCGCUCGGUAAUCGCGAAUGGGACCCA: the self-cleavage is 0.437.

Take GGCCGGCAUGGUCCCAGCCUCCUCGCUGGCGCCGGCUGGGCAACAUUGCGAGGGGACCGUUCCCUCGGUAAUGGCGAAUGGGACCCA: the self-cleavage was 0.876.

Regarding GGCCGGCAUGGUCCCAGCCUCCUCGCUGGCGCCGCCUGGGCAACAUUCCGAGGGGACCGUCCCCUCGGUAAUGGCGAAUGGGUCCCA, the self-cleavage came to 0.0898. For GGCCGGCAUGGUCCCAGCCUCCUCGCUGGCGCCGGCUGGGCAACAUUACGAGGGGACCGUCCCCUCUGUAAUGGCGAAUGGGACCCA, the self-cleavage came to 1.03. The figure for GGCCGGCAUGGUCCCAGCCUCCUCGCUGGCGCCGGCUGGGCAACAUUCCGAGGGGACCGUCCCCACGGUAAUGGCGAAUGAGACCCA is 0.495; for GGCCGUCAUGGUCCCAGUCUCCUCGCUGGCGCCGGCUGGGCAACAUUCCGAGGGGACCGUCCCCUCGGUAAUGGCGAAUGGGACCCA it is 0.0369; for GGCCGGCAUGGUCCUAGCCUCCUCGCUGGCGACGGCUGGGCAACAUUCCGAGGGGACCGUCCCCUCGGUAAUGGCGAAUGGGACCCA it is 0.214. The figure for GGCCGGCAUGGUCCCAGUCUCCUCGCUGGCGCCGGCCGGGCAACAUUCCGAGGGGACCGUCCCCUCGGUAAUGGCGAAUGGGACCCA is 0.554; for GGCCGGCAUGGUCCCAGCCUCCUCGCUGGCGCCGGCUGGGCAACAUUCCGAGGGGACCGUCUCCUCGGUAAUGGCGAAUGCGACCCA it is 0.215; for GGGCGGCAUGGUCCCAGCCUCCUCGCUGGCGCCGGCUGGGCAACAUUCCGAGGCGACCGUCCCCUCGGUAAUGGCGAAUGGGACCCA it is 0.674. As for GGCCGGCAUGGUCCCAGCCUCCUCGCUGGCGCCGGCUGGGCAACAUUCCGAGGGGACCGUCCCCUCGGUAAUGGCGAAUGGCACCCC, the self-cleavage was determined as 0.28. As for GGCCGGCAUGGUCCCAGCCUCCUCGCUGGCGCCGGCUGGGCAACAUUCAGAGGGGACAGUCCCCUCGGUAAUGGCGAAUGGGACCCA, the figure is 0.986. With GGCCGGCAUGGUCCCAGCAUCCUCGCUGGCGCCGGCGGGGCAACAUUCCGAGGGGACCGUCCCCUCGGUAAUGGCGAAUGGGACCCA, the self-cleavage was determined as 0.151. As for GGCCGGCAUGGUCCCAGCCUCCUCGCUGGCGACGGCUGGGCAACAUUCCGAGGGAACCGUCCCCUCGGUAAUGGCGAAUGGGACCCA, the figure is 0.145; as for GGCCGGCAUGGUCCCAGCCUCCACGCUGGCGCCGGAUGGGCAACAUUCCGAGGGGACCGUCCCCUCGGUAAUGGCGAAUGGGACCCA, 0.177. Consider GGCCGGCAUGGUCCCAGCCUCCUCGCUGGCGCCGGCUGGCCAACAUUCCGAGGGGACCGUCCCCUCGGUAAUGGCGAAUGGGACCCU, for which the self-cleavage worked out at 0.325.

Take GGCCGGCAUGGUCCCAGCCUCCUAGCUGGCGCCGUCUGGGCAACAUUCCGAGGGGACCGUCCCCUCGGUAAUGGCGAAUGGGACCCA: the self-cleavage amounted to 0.298. As to GGCCGGCAUGGACCCAGCCUCCUCGCUGGCGCCGGCUGGGCAACAUUCCGAGGGGACCGUCCCCUCGGUUAUGGCGAAUGGGACCCA, the self-cleavage is 0.332. For the variant GGCCGGCAUGGUCCCAGCCUCCUCGCUGGCGCCGGCUGGGCAACAUUCCCAGGGGACCGUCCCCUCGGUAAUGGCGAAUGAGACCCA, the self-cleavage amounted to 0.443. On to GGCCGGCAUGGUCCCAGCCUCCUCGCUGGCGCCGGCUGUGCAACAUUCCGAGGGGACCGUCCCAUCGGUAAUGGCGAAUGGGACCCA, for which the self-cleavage was 0.649.

Regarding GGCCGGCAUGGUCCCAGCCUCCUCGCUGGCGCCGGCUGGGCAACAUUCCGAGUGGACCGUACCCUCGGUAAUGGCGAAUGGGACCCA, the self-cleavage stood at 1.02. In the case of GGCCGGCAUGGUCCCAGCCUCCUCGCUGGCGCCGGCUGGGCAACAUUCCGAGGGGACCGUCCCCUCGGUAAUUGCGAAUGGGCCCCA, the self-cleavage was 0.17.

In the case of GGCCGGCAUGGUCCCAGCCUCCUCGCUGGCGCCGGCUGGGCAACAUUCCGAGGGGACCGUCCCCUAGGUAAUGUCGAAUGGGACCCA, the self-cleavage was found to be 0.739. Regarding GGCCGGCAUGGUCCCAGCCUCCUCGCUGGCGCCGGCUGGGCAACAUUCAGAUGGGACCGUCCCCUCGGUAAUGGCGAAUGGGACCCA, the self-cleavage was determined as 0.369. As for GGCCGACAUGGUCCCAGCCUCCUCGCUGGCGCCGGCUGGGCAACAUUCCGGGGGGACCGUCCCCUCGGUAAUGGCGAAUGGGACCCA, the figure is 0.517; as for GGCCGGCAUGGUCCCAACCUCCUCGCUGGCGCCGGCUGGGCAACAUUCCGAGGGGACCGUCCCCUCGGUAAUGGCGACUGGGACCCA, 0.268; as for GGCCGGCAAGGUCCCAGCCUCCUCGCUGGCGCCGACUGGGCAACAUUCCGAGGGGACCGUCCCCUCGGUAAUGGCGAAUGGGACCCA, 0.665. On to GGCCGGCAUGGUCCCAGCCUCCUCGCUGGCGCCGGCUGCGCAACAUUCCGAGGGGACCGUCCCCUCGGUAAUGGCGAAUGGGACCAA, for which the self-cleavage came to 0.261. As for GGCCGGCAUGGUCGGAGCCUCCUCGCUGGCGCCGGCUGGGCAACAUUCCGAGGGGACCGUCCCCUCGGUAAUGGCGAAUGGGACCCA, the figure is 0; as for GGCCGGCAUGGUCCCAGCCUCCUCGCUGGCGCAGGCUGGGCAACAUUCCGAGGGGACCGUCCCUUCGGUAAUGGCGAAUGGGACCCA, 0.086; as for GGCCGGCAUGGUCCCAGCCUGCUCGCUGGCGCCGGCUGGGCAACAUUCCGAGGGGACCGUCCCCUCGAUAAUGGCGAAUGGGACCCA, 0.0707. As for GGCCGGCAUGGUCCCAGCCUCCUCGCUGGCGCCGGCUGGGCAACAUUCCGUGGGGACCGUCCCCUCGGUAAUGGCGUAUGGGACCCA, the figure is 0.815.
